In series [1] the target is T1, FLPy (FLP recombinase from native yeast gene) (Saccharomyces cerevisiae, UniProt P03870 SEQ:1-423).
T1 sequence: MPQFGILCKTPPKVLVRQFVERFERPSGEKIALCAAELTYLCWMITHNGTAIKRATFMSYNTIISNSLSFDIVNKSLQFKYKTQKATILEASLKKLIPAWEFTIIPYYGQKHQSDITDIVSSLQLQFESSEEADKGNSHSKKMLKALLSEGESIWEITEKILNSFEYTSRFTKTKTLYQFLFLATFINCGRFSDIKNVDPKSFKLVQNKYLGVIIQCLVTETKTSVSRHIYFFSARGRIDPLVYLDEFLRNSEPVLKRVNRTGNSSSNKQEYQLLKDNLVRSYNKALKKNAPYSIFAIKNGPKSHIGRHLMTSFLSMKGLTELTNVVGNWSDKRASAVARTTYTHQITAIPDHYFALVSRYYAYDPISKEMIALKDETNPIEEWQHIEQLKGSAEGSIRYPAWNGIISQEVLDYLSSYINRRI
The series can be described thus: cell_activity; ED50 for excision between genomic FRT sites in BMS cells, PHP5095 plasmid dose. The conditions noted are these: tags: expressed in maize cells; chain copies: 4. An excerpt:
(§1) The moFLP gene produces higher levels of site-specific excision in maize cells than FLPy. The FRT-containing BMS transformants produced in Example IIA were transfected with varied doses of FLP-expressing vectors for site specific excision of genomic transgenic sequences using the methods described above for Example II-C. Plasmids expressing FLP, PHP5095 (FLPy), and PHP5096 (moFLP) are described above for Example I-A (see Table I-A-1). The FRT/moFLP-containing PHP5849 is described above for Example I-F (see Table I-F-1). Control plasmids used were PHP3703 (non-FLP negative control; with UBI promoter and intron, wheat germ agglutinin structural gene, and pinII 3' end), PHP3953 (positive control; with UBI promoter and intron, GUS structural gene, and pinII 3' end), and pUC18 (with no plant expression cassette used as carrier DNA to keep the total DNA load constant). Cell culture methods, DNA bombardment methods, and assay methods were those described above for Example I. The experimental design is shown below in Table II-D-1.
(§2) GUS activity indicating FLP-mediated excision of genomic DNA in cells transfected with FLYy or moFLP is shown below in Tables II-D-2 and II-D-3. The $ED50$ for each FLP expression plasmid shown in Table II-D-3 was manually determined from graphing the data.

Series [2] has as its target T2, moFLP (FLP recombinase from maize-codon-optimized gene) (Saccharomyces cerevisiae, UniProt P03870 SEQ:1-423).
T2 chain: T1 sequence with G5D
The series can be described thus: cell_activity; ED50 for excision between genomic FRT sites in BMS cells, PHP5096 plasmid dose. The conditions noted are these: chain copies: 4.
Source text: as §1, §2

Substitutions are numbered along the chain they refer to.

B1: FRT site (FRT-1) (dsDNA)
DNA 1: GAAGTTCCTATTCTCTAGAAAGTATAGGAACTTC
DNA 2: GAAGTTCCTATACTTTCTAGAGAATAGGAACTTC
B1: the results for the EC50 in series [1] and in series [2] were 0.13 ug FLP expression vector and 0.03 ug FLP expression vector, respectively.

The record behind these values is patent publication US6720475, “Nucleic acid sequence encoding FLP recombinase” (Pioneer Hi-Bred International, Inc.).
